From WO2010066762A1

Molecular target: Recombinant Interleukin-1 beta (IL-1B) (human) (UniProt P01584)
Assay: cell-based or functional assay

Chain of UniProt P01584 (P01584 117-269 limits assumed): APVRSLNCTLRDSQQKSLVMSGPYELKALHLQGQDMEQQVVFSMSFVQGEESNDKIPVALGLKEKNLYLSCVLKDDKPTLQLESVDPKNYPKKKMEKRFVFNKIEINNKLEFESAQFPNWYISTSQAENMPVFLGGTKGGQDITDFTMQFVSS

ACZ885 antibody
Bioassay [%] (relative potency vs ACZ885 reference standard); reconstituted lyophilisate F1, stored at 5°C: 103% | Bioassay [%] (relative potency vs ACZ885 reference standard); reconstituted lyophilisate F1, stored at 25°C: 99% | Bioassay [%] (relative potency vs ACZ885 reference standard); reconstituted lyophilisate F1, stored at 40°C: 93% | Bioassay [%] (relative potency vs ACZ885 reference standard); reconstituted lyophilisate F3, stored at 5°C: 101% | Bioassay [%] (relative potency vs ACZ885 reference standard); reconstituted lyophilisate F3, stored at 25°C: 91% | Bioassay [%] (relative potency vs ACZ885 reference standard); reconstituted lyophilisate F3, stored at 40°C: 95% | Reporter Gene Assay [%] (relative potency vs ACZ885 reference standard); liquid formulation 150 mg/mL, start: 121% | Reporter Gene Assay [%] (relative potency vs ACZ885 reference standard); liquid formulation, 5°C, 4 months: 97% | Reporter Gene Assay [%] (relative potency vs ACZ885 reference standard); liquid formulation, 5°C, 10 months: 99% | Reporter Gene Assay [%] (relative potency vs ACZ885 reference standard); liquid formulation, 5°C, 16.5 months: 110% | Reporter Gene Assay [%] (relative potency vs ACZ885 reference standard); liquid formulation, 5°C, 24 months (n=4): 99% | Reporter Gene Assay [%] (relative potency vs ACZ885 reference standard); liquid formulation, 25°C, 4 months: 100% | Reporter Gene Assay [%] (relative potency vs ACZ885 reference standard); liquid formulation, 25°C, 10 months: 85% | Reporter Gene Assay [%] (relative potency vs ACZ885 reference standard); liquid formulation, 25°C, 16.5 months: 74% | Reporter Gene Assay [%] (relative potency vs ACZ885 reference standard); liquid formulation, 25°C, 24 months (n=4): 70% | Reporter Gene Assay [%] (relative potency vs ACZ885 reference standard); liquid formulation, 40°C, 2 months: 78% | Reporter Gene Assay [%] (relative potency vs ACZ885 reference standard); liquid formulation, 40°C, 4 months: 53%
